Data published in article PMC8091081 (Infection and Immunity, 2021).

Tests used:
[1] = biological target: MBP-PhtD fragment, amino acids 341 to 838 (Streptococcus pneumoniae TCH8431 …, UniProt A0A0H2UPR0, strain); assay: ELISA
[2] = biological target: PhtD of pneumococcal strain TCH8431 (serotype 19A), endogenous (Streptococcus pneumoniae TCH8431 …, UniProt A0A0H2UPR0, strain); assay: Western blot
[3] = biological target: PhtD of pneumococcal strain TIGR4 (serotype 4), endogenous (Streptococcus pneumoniae TIGR4 …, UniProt A0A0H2UPR0); assay: Western blot

B1: human MAb PhtD7 (antibody, V domains shown)
VH: EVQLVQSGAEVKKPGASVKVSCKASGDIFSDSYIHWVRQAPGQGPEWMGWVSPNTGATHYAQKLQGRVTMTSDTSISTAYLELTRLASDDTAVYYCARVLRGSYDFRGNYPHDFDYWGQGTLVTVSS
VL: QLVLTQPPSASASLGASVTLTCTLSRGHNNYPIAWLQKQTDKGPRYVMRLNSDGSHHKGDGIPDRFSGSSSGAERYLSISSLQPEDEAEYYCQTWDTGLQGVFGGGTKLFVL
binding result [1]: binds

B2: human MAb PhtD3 (antibody, V domains shown)
VH: QVQLVQSGPDVKKPGSSVKVSCKASGAAFESFAFAWVRQAPGQGFEWMGRIIPILETRDYAEKFQGRMTMTTDESTATAYMELNSLRFEDTAVYFCARDGHIMRTTLSDAALDVWGQGTTVIVSS
VL: DIVMTQSPVTLSLSPGERATLSCRASQSLTDNYLAWYQQKPGQAPRLLIYAASTRATGIPDRISGSGSGTDFTLTISRVEPEDFAMFYCQQYQNSPFTFGGGTTVEIK
binding result [2]: binds
binding result [3]: binds
